# Source: paper PMC4331669, “Phosphatidylinositol binding of Saccharomyces cerevisiae Pdr16p represents an essential feature of this lipid transfer protein to provide protection against azole antifungals” (Biochimica et Biophysica Acta. Molecular and Cell Biology …, 2014)
# Where a chain is given by its changes, count along the chain named. Numbers in names are those of the source.
# B1: Pdr16p (wild-type, recombinant Pdr16-His) (natural protein, S. cerevisiae, UniProt P53860 1-351, looked up)
# chain: MFKRFSKKKEAPEDPKNLINIDKPIKELPASIAIPKEKPLTGEQQKMYDEVLKHFSNPDLKVYTSEKNKSEDDLKPLEEEEKAWLTRECFLRYLRATKWVLKDCIDRITMTLAWRREFGISHLGEEHGDKITADLVAVENESGKQVILGYENDARPILYLKPGRQNTKTSHRQVQHLVFMLERVIDFMPAGQDSLALLIDFKDYPDVPKVPGNSKIPPIGVGKEVLHILQTHYPERLGKALLTNIPWLAWTFLKLIHPFIDPLTREKLVFDEPFVKYVPKNELDSLYGGDLKFKYNHDVYWPALVETAREKRDHYFKRFQSFGGIVGLSEVDLRGTHEKLLYPVKSESSTV
# notes: Pdr16p (Sfh3p) of Saccharomyces cerevisiae, ORF PDR16 amplified from YEplac181-PDR16 and inserted between NdeI and NotI of pET26; predicted monomer mass 40.7 kDa; The whole ORF was cloned NdeI-NotI into pET26 with a C-terminal 6xHis; No removal of the tag is described; also called Sfh3p; source: E. coli Rosetta, purified (Ni-NTA agarose)
# B2: Pdr16p^(E235A, K267A) (recombinant Pdr16^(E235A, K267A)-His) (natural protein, S. cerevisiae, UniProt P53860 1-351, looked up)
# chain: B1 chain with E235A, K267A
# notes: Same construct as m1 with the two point mutations; source: E. coli Rosetta, purified (Ni-NTA agarose)
# Molecular target: the molecule itself
# Assay: SEC; Superose 12 10/300 GL, 20 mM PIPES pH 6.8, 250 mM NaCl, 2.7 mM KCl, 0.4 ml/min; BSA and ovalbumin as molecular weight standards; apparent mass about 90 kDa against a predicted monomer of 40.7 kDa
row,Protein,stoichiometry N
1,B1,2
2,B2,2
